This assay addresses acetylcholine receptor. The assay is described as follows: SPR, AchR immobilised on chip, peptide at 10 uM.

KGFYR [5mer-575] displayed a Binding affinity (RU) of 69 RU.
Under RVLTR [5mer-282] stands 77 RU.
In turn, RVRQR [5mer-562] gave a Binding affinity (RU) of 70 RU.
KSYQK [5mer-266] showed a Binding affinity (RU) of 66 RU.
As for KQVQR [5mer-284], the figure is 52 RU; as for KWYQR [5mer-560], 59 RU; as for RLFLR [5mer-269], 85 RU.
KVVYR [5mer-583] displayed a Binding affinity (RU) of 75 RU.
With KQITR [5mer-568], the Binding affinity (RU) came to 64 RU.
For RLFRK [5mer-576], the Binding affinity (RU) came to 62 RU.
As for KWYRK [5mer-264], the Binding affinity (RU) is 50 RU.
For RRLTK [5mer-571], the Binding affinity (RU) came out at 51 RU.
For the molecule RQQRK [5mer-569], the Binding affinity (RU) amounted to 79 RU.
The molecule RQVRK [5mer-274] gave a Binding affinity (RU) of 62 RU.
Under KSRCR [5mer-262] stands 59 RU; under KRLLK [5mer-267], 66 RU.
Regarding RGFLK [5mer-281], the Binding affinity (RU) came out at 58 RU.
KLVRR [5mer-570]: the Binding affinity (RU) is 56 RU.
Consider KQIQK [5mer-584], for which the Binding affinity (RU) came out at 76 RU.
In turn, KGFTR [5mer-574] registered a Binding affinity (RU) of 59 RU.
Consider RVQSK [5mer-273], for which the Binding affinity (RU) is 82 RU.
With KGVLR [5mer-581], the Binding affinity (RU) was found to be 65 RU.
In turn, RSQQR [5mer-270] yielded a Binding affinity (RU) of 52 RU.
The molecule KWRCK [5mer-561] had a Binding affinity (RU) of 72 RU.
Molecule KLVTK [5mer-577] yielded a Binding affinity (RU) of 77 RU.
In turn, RRVLR [5mer-261] gave a Binding affinity (RU) of 59 RU.
Turning to RSLRR [5mer-276], the Binding affinity (RU) was found to be 70 RU.
Molecule KVYRR [5mer-260] displayed a Binding affinity (RU) of 57 RU.
Consider KRYCK [5mer-268], for which the Binding affinity (RU) stood at 54 RU.
Molecule RSLYK [5mer-579] returned a Binding affinity (RU) of 53 RU.
In the case of RSRYR [5mer-564], the Binding affinity (RU) was 74 RU.
On to RLVLK [5mer-563], for which the Binding affinity (RU) came to 60 RU.
RGRYR [5mer-271]: the Binding affinity (RU) came out at 68 RU.
Regarding RRYCK [5mer-567], the Binding affinity (RU) came out at 63 RU.
On to RSIYR [5mer-573], for which the Binding affinity (RU) was determined as 84 RU.
As for RLIRK [5mer-259], the figure is 71 RU.
In turn, KWILK [5mer-280] showed a Binding affinity (RU) of 53 RU.
RGYTR [5mer-580] returned a Binding affinity (RU) of 70 RU.
Regarding RLVSK [5mer-565], the Binding affinity (RU) was 77 RU.
As for KSVLR [5mer-578], the figure is 65 RU; as for RWQCR [5mer-265], 77 RU.
As for KQLYK [5mer-566], the figure is 78 RU.
As for RVFTR [5mer-277], the figure is 82 RU; as for KVYTR [5mer-275], 64 RU; as for RWQRR [5mer-278], 66 RU.
The molecule KLRTK [5mer-572] showed a Binding affinity (RU) of 58 RU.
Regarding KWVYK [5mer-283], the Binding affinity (RU) worked out at 51 RU.
With KQQLK [5mer-559], the Binding affinity (RU) was 81 RU.
KGYQR [5mer-272] yielded a Binding affinity (RU) of 83 RU.
As to RGICK [5mer-582], the Binding affinity (RU) worked out at 82 RU.
Under KQVTR [5mer-263] stands 80 RU.
Regarding RVVTK [5mer-279], the Binding affinity (RU) amounted to 56 RU.

These data come from patent US20250011363A1, “OPTIMIZED SHORTENED PEPTIDE THAT BINDS TO ACETYLCHOLINE RECEPTOR, AND USE THEREOF” (SKINMED CO., LTD., priority 2021, published 2025).
